Data reported in the supplement of paper PMC9732359.
± gives the uncertainty stated by the source.

Experiment: protein stability index of a GFP-peptide fusion (yeast GPS) (PSI 1-4); higher = more stable; sorted into four equal gates, so the index is relative within each strain
How it was run: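 Plasmids isolated from each sorting gate were PCR-amplified and Illumina-sequenced, and barcodes assigned the reads to strains. The gates, four of equal size, were set by GFP/Cherry fluorescence ratio on mid-log cultures in leucine-free medium. These cultures were yeast carrying a pooled library of tiled 17-residue yeast protein peptides fused downstream of GFP on a plasmid that also expresses Cherry. The protein stability index is the sum of every gate's read frequency times its gate number.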

Sequence | protein stability index (doa10∆) | protein stability index (pdr5∆) | protein stability index (san1∆) | protein stability index (ubr1∆)
FRNPTPLLSNYASKINR [RGR1] | 1.44 ± 0.058 | 1.6 ± 0.045 | 1.34 ± 0.11 | 1.66 ± 0.048
TASKIIVIDVDYNKKQD [MED1] | 2.21 ± 0.083 | 2.58 ± 0.081 | 2.17 ± 0.055 | 2.65 ± 0.065
KNISSQLDSKLMVFNDD [YGR119C/NUP57] | 2.12 ± 0.041 | 2.54 ± 0.052 | 2.24 ± 0.056 | 2.08 ± 0.029
EREVFVDVKPKSPKERE [RPC25] | – | 2.98 ± 0.17 | – | 3.34 ± 0.13
NFLLPDIFGDSELFDEW [ISW2] | 2.25 ± 0.059 | 2.46 ± 0.076 | 2.79 ± 0.07 | 2.72 ± 0.059
HEVQYQESSSTLSTHST [SIN4] | 2.68 ± 0.037 | 2.78 ± 0.036 | 2.87 ± 0.041 | 2.83 ± 0.032
LWSIHPSRQFDHYESNQ [SRB8] | 1.75 ± 0.074 | 2.24 ± 0.068 | 2.13 ± 0.11 | 2.64 ± 0.062
ISQVSSIHAIGSIKEDY [RPB7] | 2.27 ± 0.077 | 2.65 ± 0.067 | 2.32 ± 0.084 | 2.79 ± 0.1
VGKTVKQLIMESQEKYM [NSL1] | 3.17 ± 0.097 | 3.18 ± 0.073 | 2.8 ± 0.067 | 3.34 ± 0.055
GKHLSYQRSKRVNNPNV [RPL33A] | 2.32 ± 0.047 | 1.92 ± 0.038 | 2.01 ± 0.069 | 2.78 ± 0.041
YDRATLTQLLSMMSDGI [RPO31] | 2.29 ± 0.062 | 2.44 ± 0.053 | 2.56 ± 0.054 | 1.66 ± 0.038
LSVEIGVLTDISSLIGG [NUT1] | 1.32 ± 0.13 | 1.95 ± 0.11 | 1.89 ± 0.25 | 2.18 ± 0.12
QQNYSKVLLPSINISCV [SWI1] | 1.85 ± 0.067 | 1.71 ± 0.059 | 1.87 ± 0.16 | 2.53 ± 0.054
DQVLNLCLTEFENCYLE [FAS1] | 3.15 ± 0.1 | 3.2 ± 0.099 | 3.18 ± 0.14 | 3.25 ± 0.048
LKAVTVEAGMIALRNGQ [RPT5] | 3.1 ± 0.23 | 2.9 ± 0.16 | 2.51 ± 0.17 | –
NPHDTLNRIKKYLLTQR [PRP8] | 2.22 ± 0.095 | 2.14 ± 0.08 | 2.25 ± 0.11 | 2.27 ± 0.15
LLPQWDDDQIESLKKSP [ARP9] | 3.17 ± 0.085 | 3.15 ± 0.061 | 3.1 ± 0.051 | 3.12 ± 0.052
QFLRLIFVSILSDRANK [ARP9] | 1.64 ± 0.065 | 1.65 ± 0.075 | 2.18 ± 0.087 | 1.2 ± 0.027
IPGGPKFEPLYPREEEE [PRP8] | 3.01 ± 0.11 | 2.78 ± 0.15 | 3.01 ± 0.11 | 2.91 ± 0.13
TLSTHSTTTSVNGSTTA [SIN4] | 2.79 ± 0.043 | 3.04 ± 0.038 | 3.114 ± 0.03 | 2.93 ± 0.031
DLLKLVHLSNGYKMIPG [FAS1] | 2.3 ± 0.057 | 2.46 ± 0.055 | 2.14 ± 0.064 | 2.24 ± 0.039
NKDASLALQRGATVFVN [DPB4] | 2.61 ± 0.099 | 2.29 ± 0.072 | 2.88 ± 0.067 | 2.32 ± 0.083
LAIADSPQKFETNLQTF [ECM29] | 2.96 ± 0.11 | 3.3 ± 0.098 | 3.25 ± 0.048 | 2.79 ± 0.091
HYVSTSKISQMAQNKTH [YLR018C/POM34] | 1.56 ± 0.032 | 2.02 ± 0.035 | 1.78 ± 0.058 | 1.87 ± 0.027
HIKEASEEVDDLSMVPK [SNF2] | 3.27 ± 0.11 | 3.24 ± 0.25 | 3.13 ± 0.1 | 3.6 ± 0.16

Sequence | protein stability index (doa10∆) | protein stability index (pdr5∆) | protein stability index (san1∆) | protein stability index (ubr1∆)
SHERFFLSQGLHVVITL [CSN12] | 2.89 ± 0.099 | 2.94 ± 0.094 | 2.74 ± 0.18 | 2.87 ± 0.12
ILERAYKKLDIDGKVIQ [SNF2] | 3.16 ± 0.083 | 3.34 ± 0.076 | 3.05 ± 0.042 | 3 ± 0.058
GQLISLLFEDLFKKFNN [RET1] | 3.1 ± 0.17 | 3.22 ± 0.23 | 3.34 ± 0.15 | –
SDIVFIHQNAGRLLRAM [BRR2] | 1.73 ± 0.054 | 1.71 ± 0.054 | 1.9 ± 0.071 | 2.02 ± 0.06
EVFIGRVKDQDGRVNRF [YJR042W/NUP85] | 3.44 ± 0.2 | 3.28 ± 0.28 | 3.5 ± 0.14 | 3.19 ± 0.17
LDKHERKWMEEKADYER [YIL149C/MLP2] | 2.8 ± 0.094 | 3.35 ± 0.15 | 2.66 ± 0.13 | 3.25 ± 0.12
ALNNAIPGGPKFEPLYP [PRP8] | 3.1 ± 0.069 | 2.96 ± 0.086 | 2.95 ± 0.09 | 3.06 ± 0.046
PTSVKLLKTTVPIVSKK [POP3] | 3.21 ± 0.1 | 2.94 ± 0.068 | 2.86 ± 0.083 | 3 ± 0.075
YELEFDTPTSGKHNLTI [BRR2] | 3.1 ± 0.068 | 3.04 ± 0.076 | 3.18 ± 0.061 | 3.23 ± 0.065
PSQTLFSISYKPPTQKT [SRP21] | 2.23 ± 0.036 | 2.2 ± 0.039 | 1.97 ± 0.056 | 2.1 ± 0.032
KVTSTLLEQDTSTEKLY [PRE9] | 2.7 ± 0.056 | 3 ± 0.066 | 2.65 ± 0.063 | 2.63 ± 0.08
FNATVDETKGFDDNDSG [MED2] | 3.14 ± 0.09 | 3.17 ± 0.078 | 3.25 ± 0.066 | 3.29 ± 0.078
GALVDRTQPWSIMPDLY [RPS0A] | 2.71 ± 0.09 | 2.82 ± 0.091 | 2.87 ± 0.062 | 3.11 ± 0.032
KHEEIDTKNLYVIKALQ [RPS10A] | 1.6 ± 0.085 | 2.02 ± 0.078 | 1.64 ± 0.12 | 1.46 ± 0.077
TTTVLKRYANHTQDIIG [RET1] | 2.04 ± 0.083 | 2.75 ± 0.093 | 3.02 ± 0.051 | 2.9 ± 0.055
SGDNHTQQSHEQQPEQP [RPT4] | 2.96 ± 0.052 | 3.15 ± 0.064 | 3.03 ± 0.06 | 2.95 ± 0.049
VKMLRDNPGYKASKEIK [SIR3] | 3.08 ± 0.17 | 3.38 ± 0.19 | – | 3.15 ± 0.11
PWVVYLQILAMLLLNIF [YMR129W/POM152] | 1.19 ± 0.1 | 1.96 ± 0.072 | 1.18 ± 0.16 | 1.16 ± 0.08
ILTKEVQGSTLAQLTSK [RPS1A] | 3.27 ± 0.084 | 3 ± 0.08 | 3.2 ± 0.072 | 2.93 ± 0.15
DNSVEQGRRLGESIMSE [MCD1] | – | 3.41 ± 0.22 | – | 3.33 ± 0.12
FLKKVMDTIQDKLINDV [ECM29] | 3.08 ± 0.16 | 3.58 ± 0.2 | 2.95 ± 0.2 | 3.34 ± 0.15
ENPNFWRQFGNRMQISP [GRR1] | 3.14 ± 0.13 | 3.02 ± 0.13 | 2.93 ± 0.11 | 2.76 ± 0.12
LYDHWDKYHEQWIKFLL [SSN8] | 3.16 ± 0.2 | 3.1 ± 0.13 | 2.84 ± 0.071 | 2.72 ± 0.054
CITKQDGFKIYDNEKTA [PUP2] | 2.85 ± 0.1 | 3.06 ± 0.063 | 3.1 ± 0.05 | 2.82 ± 0.095
